Reference: the supplement of paper PMC7125110
± gives the standard error. For some assays here: Variants at the floor of the assay were thinned out.

B1: glmS ribozyme (parent)
chain: AUAAAAGCGCCAGAACUACAGAAAUGUAGUUGACGAGGAGGAGGUUUAUCGAAUUUUCGGCGGAUGCCUCCAAA

Assays:
Details in all cases: with glucosamine-6-phosphate
glucosamine-6-phosphate [1] = variants of: B1; experiment: kcat; higher = faster cleavage; RNA array
Procedure, shortened: (§1)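 Glucosamine-6-phosphate in HEPES/KCl/Mg(OAc)2 buffer, at 40 μM to 10 mM, was flowed over barcoded ribozyme variants transcribed in situ by E. coli RNA polymerase on sequenced MiSeq chips. Tracking was through a hybridised Cy3 probe at 37 °C. kobs, kcat and KM came from exponential decay fits and weighted Michaelis–Menten fits of normalised per-tile medians.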

glucosamine-6-phosphate [2] = variants of: B1; experiment: KM; higher = weaker cofactor use; RNA array
Procedure, shortened: as §1

glucosamine-6-phosphate [3] = variants of: B1; experiment: self-cleavage kobs at 160 uM GlcN6P; higher = faster cleavage; RNA array
Procedure, shortened: as §1

glucosamine-6-phosphate [4] = variants of: B1; experiment: self-cleavage kobs at 640 uM GlcN6P; higher = faster cleavage; RNA array
Procedure, shortened: as §1

glucosamine-6-phosphate [5] = variants of: B1; experiment: self-cleavage kobs at 2500 uM GlcN6P; higher = faster cleavage; RNA array
Procedure, shortened: as §1

glucosamine-6-phosphate [6] = variants of: B1; experiment: self-cleavage kobs at 10000 uM GlcN6P; higher = faster cleavage; RNA array
Procedure, shortened: as §1

glucosamine-6-phosphate [7] = variants of: B1; experiment: self-cleavage kobs at 40 uM GlcN6P; higher = faster cleavage; RNA array
Procedure, shortened: as §1

Variant | kcat (glucosamine-6-phosphate [1]) [s⁻¹] | KM (glucosamine-6-phosphate [2]) [µM] | self-cleavage kobs at 160 uM GlcN6P (glucosamine-6-phosphate [3]) [s⁻¹] | self-cleavage kobs at 640 uM GlcN6P (glucosamine-6-phosphate [4]) [s⁻¹] | self-cleavage kobs at 2500 uM GlcN6P (glucosamine-6-phosphate [5]) [s⁻¹] | self-cleavage kobs at 10000 uM GlcN6P (glucosamine-6-phosphate [6]) [s⁻¹] | self-cleavage kobs at 40 uM GlcN6P (glucosamine-6-phosphate [7]) [s⁻¹]
C16G U46A | 0.000198 ± 1.7e-05 | 676 ± 180 | 4.2e-05 ± 2e-05 | 9.94e-05 ± 2.2e-05 | 0.000146 ± 2.2e-05 | 0.000213 ± 4.4e-05 | 
A33U C71U | 0.000125 ± 1.3e-05 | 2840 ± 690 |  | 3.01e-05 ± 7.2e-06 | 5.58e-05 ± 5.4e-06 | 0.0001 ± 9.1e-06 | 
A36G C70U | 3.34e-05 ± 3.8e-06 |  |  |  | 3.3e-05 ± 1.3e-05 | 2.96e-05 ± 1.1e-05 | 
G59A C70U | 0.000157 ± 9e-06 | 1970 ± 320 |  | 4.24e-05 ± 8e-06 | 8.29e-05 ± 9.8e-06 | 0.000133 ± 1.1e-05 | 
U47G C50U A64C | 1.3e-05 ± 3.4e-06 |  |  |  |  |  | 
A14C G37C | < 1e-05 |  |  | < 1e-05 |  | < 1e-05 | < 1e-05
A48C U55A | 0.000411 ± 0.0001 | 2110 ± 920 |  | 8.73e-05 ± 1.8e-05 | 0.000276 ± 4.6e-05 | 0.000272 ± 8.7e-05 | 
C61U C70G | 1.1e-05 ± 2e-06 |  |  |  |  |  | 
U30G U31G | 0.0304 ± 0.012 |  |  | 0.0102 ± 0.0017 |  | 0.036 ± 0.0081 | 0.00149 ± 0.00022
A14C A53G | 0.00897 ± 0.0044 |  | 0.000245 ± 3.7e-05 | 0.00116 ± 0.00015 | 0.0024 ± 0.00037 | 0.00721 ± 0.001 | 0.00012 ± 1.8e-05
G37U A52G | < 1e-05 |  |  | < 1e-05 |  |  | < 1e-05
U45C C68G | 9.46e-05 ± 8.6e-06 | 714 ± 250 |  | 4.14e-05 ± 1.1e-05 | 8.62e-05 ± 1.5e-05 | 8.34e-05 ± 1.2e-05 | 
U47C C50A | 3.31e-05 ± 5.7e-06 | 3090 ± 1500 |  |  |  |  | 
U45C U57A | 1.9e-05 ± 2.7e-06 |  |  |  |  |  | 
A6G U31C | 6.74e-05 ± 1.3e-05 |  |  |  | 5.13e-05 ± 7.6e-06 | 5.58e-05 ± 7.5e-06 | 
G29C C58A | 0.000126 ± 8e-06 | 1420 ± 280 |  | 3.49e-05 ± 1.2e-05 | 8.42e-05 ± 1.4e-05 | 0.000108 ± 1.5e-05 | 
G9U A14G | 1.09e-05 ± 5.1e-06 |  |  |  | < 1e-05 | < 1e-05 | < 1e-05
G32A U56C | 0.000235 ± 2.8e-05 | 2950 ± 670 |  | 4.72e-05 ± 1e-05 | 9.95e-05 ± 1.6e-05 | 0.000191 ± 3.1e-05 | 
C10A C71A | 1.51e-05 ± 2.9e-06 |  |  |  |  |  | 

Variant | kcat (glucosamine-6-phosphate [1]) [s⁻¹] | KM (glucosamine-6-phosphate [2]) [µM] | self-cleavage kobs at 160 uM GlcN6P (glucosamine-6-phosphate [3]) [s⁻¹] | self-cleavage kobs at 640 uM GlcN6P (glucosamine-6-phosphate [4]) [s⁻¹] | self-cleavage kobs at 2500 uM GlcN6P (glucosamine-6-phosphate [5]) [s⁻¹] | self-cleavage kobs at 10000 uM GlcN6P (glucosamine-6-phosphate [6]) [s⁻¹] | self-cleavage kobs at 40 uM GlcN6P (glucosamine-6-phosphate [7]) [s⁻¹]
A42U U56A | 0.000109 ± 7.4e-06 | 3230 ± 710 |  |  | 4.97e-05 ± 1.4e-05 | 8.21e-05 ± 9.2e-06 | 
G13U C67U | 0.000313 ± 1.9e-05 | 1680 ± 230 | 2.74e-05 ± 7.6e-06 | 8.78e-05 ± 1.1e-05 | 0.000177 ± 2e-05 | 0.000274 ± 2.4e-05 | 
U65A C70A | 7.41e-05 ± 5e-06 | 128 ± 49 | 4.4e-05 ± 1.4e-05 | 5.79e-05 ± 1.2e-05 | 6.44e-05 ± 1.3e-05 | 8.15e-05 ± 1.3e-05 | 
A53U G63C | < 1e-05 |  |  |  |  |  | 
A14C A33U | 3.55e-05 ± 2.4e-06 | 994 ± 450 |  |  |  | 3.21e-05 ± 7.6e-06 | 
C11A U30A C50U | 2.21e-05 ± 3.2e-06 |  |  |  |  |  | 
A39G G41U | 0.0014 ± 8.3e-05 | 1410 ± 140 | 0.000143 ± 2.9e-05 | 0.000467 ± 8.1e-05 | 0.000965 ± 0.00021 | 0.00119 ± 0.00016 | 3.41e-05 ± 9.8e-06
C16G U65G | 0.00228 ± 0.0011 |  | 6.11e-05 ± 1.6e-05 | 0.000149 ± 6.2e-05 | 0.000455 ± 0.00013 | 0.00143 ± 0.00036 | 
C71A | 0.0153 ± 0.0014 | 2490 ± 360 | 0.00104 ± 7.6e-05 | 0.00298 ± 0.00014 | 0.00761 ± 0.00039 | 0.0124 ± 0.0006 | 0.00092 ± 0.0004
A6G U65A | 7.49e-05 ± 1.1e-05 |  |  |  | 4.41e-05 ± 1.2e-05 | 6.05e-05 ± 9.8e-06 | 
C11A U56C | 2.55e-05 ± 1e-05 |  | < 1e-05 |  | 4.6e-05 ± 2.2e-05 |  | < 1e-05
U31C A53G | 0.00573 ± 0.0015 | 1960 ± 740 | 0.000305 ± 5.6e-05 | 0.00167 ± 0.00042 | 0.00309 ± 0.00042 | 0.00495 ± 0.00059 | 0.000158 ± 1.8e-05
A52G A64G | 0.00183 ± 0.00049 | 3690 ± 1500 | 6.03e-05 ± 9.6e-06 | 0.00036 ± 3.9e-05 | 0.000616 ± 0.0001 | 0.00136 ± 0.00013 | 2.83e-05 ± 7.3e-06
C50G G60C U69A | 8.12e-05 ± 2.6e-05 |  | 0.00016 ± 4.5e-05 | 0.00011 ± 2.1e-05 | 0.000146 ± 3.1e-05 | 4.94e-05 ± 1.4e-05 | 
C16G C50A U57C C68U C71G | 2.93e-05 ± 8.8e-06 |  |  |  |  |  | 
G38U A39G C50G | 3.57e-05 ± 8.1e-06 |  |  |  |  |  | 
A33G A64G C70A | 5.02e-05 ± 9.3e-06 |  |  |  |  |  | 
U30A U47G | 0.000918 ± 0.00028 |  |  | 0.000406 ± 8.6e-05 | 0.000481 ± 0.00024 | 0.00109 ± 0.00021 | 7.81e-05 ± 2.4e-05
